The source of these data is article PMC2845155.

For this data set, the system named is CC(=O)N[C@H]1[C@@H]2OC[C@@H](O2)[C@@H](O)[C@@H]1O[C@H](C)C(=O)N[C@@H](C)C(=O)N[C@H](CCC(=O)N[C@@H](CCC[C@@H](N)C(=O)O)C(=O)O)C(=O)O. The data set can be described thus: LC/MS of substrate consumption or product formation, nonlinear regression. In kind it is biochemical, Citrobacter freundii. Conditions: pH 7.0, hydrolysis at lactyl amide bond.

As a reminder, the Km is the concentration of substrate that gives half-maximal velocity. What is called kcat is the number of substrate molecules converted per active site and unit of time at saturation. Usually kcat/Km stands for the turnover number divided by the Michaelis constant.

For the substance AmpD (Citrobacter freundii), the Km was 360 ± 10 µM, the kcat stood at 25 ± 2 s⁻¹ and the kcat/Km turned out to be 69000 ± 4000 M⁻¹ s⁻¹.
